# Assay results published in US20160264649A1.
# Legend:
# Assay in all cases: cell-based or functional assay
# [1] = target: HIV-1 MGRM-D-012 Env (HIV-1)
# [2] = target: HIV-1 APV_6 Env on pseudovirus (HIV-1)
# [3] = target: HIV-1 92UG024 Env (HIV-1)
# [4] = target: HIV-1 MGRM-C-005 Env on pseudovirus (HIV-1)
# [5] = target: HIV-1 MGRM-Chronic-B-024 Env on pseudovirus (HIV-1)
# [6] = target: HIV-1 92UG005 Env (HIV-1)
# [7] = target: HIV-1 MGRM-G-027 Env (HIV-1)
# [8] = target: HIV-1 MGRM-F1-021 Env (HIV-1)
# [9] = target: HIV-1 MGRM-G-028 Env (HIV-1)
# [10] = target: HIV-1 MGRM-G-024 Env (HIV-1)
# [11] = target: HIV-1 MGRM-Chronic-B-012 Env on pseudovirus (HIV-1)
# [12] = target: HIV-1 MGRM-D-024 Env (HIV-1)
# [13] = target: HIV-1 MGRM-C-023 Env on pseudovirus (HIV-1)
# [14] = target: HIV-1 MGRM-AE-001 Env (HIV-1)
# [15] = target: HIV-1 MGRM-AG-009 Env (HIV-1)
# [16] = target: HIV-1 MGRM-G-004 Env (HIV-1)
# HIV-1 CMU02 Env (HIV-1) = target: HIV-1 CMU02 Env (HIV-1)
# [17] = target: HIV-1 MGRM-G-017 Env (HIV-1)
# [18] = target: HIV-1 MGRM-C-013 Env on pseudovirus (HIV-1)
# [19] = target: HIV-1 JRFL Env on pseudovirus (HIV-1)
# [20] = target: HIV-1 MGRM-D-011 Env (HIV-1)
# [21] = target: HIV-1 MGRM-F1-020 Env (HIV-1)
# [22] = target: HIV-1 98CN009 Env on pseudovirus (HIV-1)
# [23] = target: HIV-1 MGRM-Chronic-B-011 Env on pseudovirus (HIV-1)
# [24] = target: HIV-1 JRCSF Env on pseudovirus (HIV-1) (UniProt P20871)
# [25] = target: HIV-1 MGRM-G-019 Env (HIV-1)
# [26] = target: HIV-1 MGRM-F1-008 Env (HIV-1)
# [27] = target: HIV-1 93IN905 Env on pseudovirus (HIV-1)
# [28] = target: HIV-1 93TH305 Env on pseudovirus (HIV-1)
# [29] = target: HIV-1 MGRM-F1-016 Env (HIV-1)
# [30] = target: HIV-1 MGRM-F1-022 Env (HIV-1)
# [31] = target: HIV-1 92UG001 Env (HIV-1)
# [32] = target: HIV-1 MGRM-F1-006 Env (HIV-1)
# [33] = target: HIV-1 93UG077 Env (HIV-1)
# [34] = target: HIV-1 IAVI-C22 Env (HIV-1)
# [35] = target: HIV-1 THR0.18 (Acute) Env on pseudovirus (HIV-1)
# [36] = target: HIV-1 SF162 Env on pseudovirus (HIV-1) (UniProt P19550)
# [37] = target: HIV-1 MGRM-AG-006 Env (HIV-1)
# [38] = target: HIV-1 MGRM-AG-012 Env (HIV-1)
# [39] = target: HIV-1 MGRM-G-006 Env (HIV-1)
# HIV-1 NL43 Env (HIV-1) = target: HIV-1 NL43 Env (HIV-1)
# [40] = target: HIV-1 MGRM-Chronic-B-003 Env on pseudovirus (HIV-1)
# [41] = target: HIV-1 93IN905 Env (HIV-1)
# [42] = target: HIV-1 MGRM-C-004 Env on pseudovirus (HIV-1)
# [43] = target: HIV-1 IAVI-C18 Env (HIV-1)
# [44] = target: HIV-1 MGRM-G-014 Env (HIV-1)
# [45] = target: HIV-1 92RW020 Env (HIV-1)
# [46] = target: HIV-1 MGRM-C-014 Env on pseudovirus (HIV-1)
# [47] = target: HIV-1 93MW959 Env on pseudovirus (HIV-1)
# [48] = target: HIV-1 MGRM-F1-010 Env (HIV-1)
substance,measurement,setting,value
2G12 (antibody),"IC50 (µg/ml), pseudovirus neutralization",[1],> 50 µg/mL
same,IC50,[2],1.9 µg/mL
same,"IC50 (µg/ml), pseudovirus neutralization",[3],0.42 µg/mL
same,neutralization IC50,[3],0.59 µg/mL
same,neutralization IC90,[3],7.57 µg/mL
same,IC50,[4],> 50 µg/mL
same,IC50,[5],> 50 µg/mL
same,"IC50 (µg/ml), pseudovirus neutralization",[6],> 50 µg/mL
same,neutralization IC50,[6],> 50 µg/mL
same,neutralization IC90,[6],> 50 µg/mL
same,"IC50 (µg/ml), pseudovirus neutralization",[7],> 50 µg/mL
same,IC50 (pseudovirus neutralization),[8],14.1 µg/mL
same,"IC50 (µg/ml), pseudovirus neutralization",[9],28.2 µg/mL
same,"IC50 (µg/ml), pseudovirus neutralization",[10],> 50 µg/mL
same,IC50,[11],0.22 µg/mL
same,"IC50 (µg/ml), pseudovirus neutralization",[12],> 50 µg/mL
same,IC50,[13],> 50 µg/mL
same,"IC50 (µg/ml), pseudovirus neutralization",[14],> 50 µg/mL
same,"IC50 (µg/ml), pseudovirus neutralization",[15],> 50 µg/mL
same,"IC50 (µg/ml), pseudovirus neutralization",[16],> 50 µg/mL
same,"IC50 (µg/ml), pseudovirus neutralization",HIV-1 CMU02 Env (HIV-1),> 50 µg/mL
same,neutralization IC50,HIV-1 CMU02 Env (HIV-1),> 50 µg/mL
same,neutralization IC90,HIV-1 CMU02 Env (HIV-1),> 50 µg/mL
same,"IC50 (µg/ml), pseudovirus neutralization",[17],> 50 µg/mL
same,IC50,[18],> 50 µg/mL
same,IC50,[19],1.45 µg/mL
same,"IC50 (µg/ml), pseudovirus neutralization",[20],1.5 µg/mL
same,IC50 (pseudovirus neutralization),[21],> 50 µg/mL
same,IC50,[22],> 50 µg/mL
same,IC50,[23],> 50 µg/mL
same,IC50,[24],0.37 µg/mL
same,"IC50 (µg/ml), pseudovirus neutralization",[25],31 µg/mL
same,IC50 (pseudovirus neutralization),[26],> 50 µg/mL
same,IC50,[27],> 50 µg/mL
same,IC50,[28],0.55 µg/mL
same,IC50 (pseudovirus neutralization),[29],> 50 µg/mL
same,IC50 (pseudovirus neutralization),[30],> 50 µg/mL
same,"IC50 (µg/ml), pseudovirus neutralization",[31],> 50 µg/mL
same,IC50 (pseudovirus neutralization),[32],> 50 µg/mL
same,neutralization IC50,[33],> 50 µg/mL
same,neutralization IC90,[33],> 50 µg/mL
same,neutralization IC50,[34],> 50 µg/mL
same,neutralization IC90,[34],> 50 µg/mL
same,IC50,[35],> 50 µg/mL
same,IC50,[36],1.67 µg/mL
same,"IC50 (µg/ml), pseudovirus neutralization",[37],3.92 µg/mL
same,"IC50 (µg/ml), pseudovirus neutralization",[38],1.94 µg/mL
same,"IC50 (µg/ml), pseudovirus neutralization",[39],> 50 µg/mL
same,neutralization IC50,HIV-1 NL43 Env (HIV-1),0.75 µg/mL
same,neutralization IC90,HIV-1 NL43 Env (HIV-1),15.8 µg/mL
same,IC50,[40],0.06 µg/mL
same,neutralization IC50,[41],> 50 µg/mL
same,neutralization IC90,[41],> 50 µg/mL
same,IC50,[42],> 50 µg/mL
same,neutralization IC50,[43],> 50 µg/mL
same,neutralization IC90,[43],> 50 µg/mL
same,"IC50 (µg/ml), pseudovirus neutralization",[44],> 50 µg/mL
same,neutralization IC50,[45],0.56 µg/mL
same,neutralization IC90,[45],6.23 µg/mL
same,IC50,[46],> 50 µg/mL
same,IC50,[47],> 50 µg/mL
1495_C14 (PGC14) (antibody),"IC50 (µg/ml), pseudovirus neutralization",[1],> 50 µg/mL
same,IC50,[2],23 µg/mL
same,"IC50 (µg/ml), pseudovirus neutralization",[3],> 50 µg/mL
same,neutralization IC50,[3],> 50 µg/mL
same,IC50,[4],> 50 µg/mL
same,IC50,[5],> 50 µg/mL
same,"IC50 (µg/ml), pseudovirus neutralization",[6],> 50 µg/mL
same,neutralization IC50,[6],> 50 µg/mL
same,"IC50 (µg/ml), pseudovirus neutralization",[7],> 50 µg/mL
same,IC50 (pseudovirus neutralization),[8],46 µg/mL
same,"IC50 (µg/ml), pseudovirus neutralization",[9],> 50 µg/mL
same,"IC50 (µg/ml), pseudovirus neutralization",[10],> 50 µg/mL
same,IC50,[11],> 50 µg/mL
same,"IC50 (µg/ml), pseudovirus neutralization",[12],> 50 µg/mL
same,IC50 (pseudovirus neutralization),[48],> 50 µg/mL
same,IC50,[13],> 50 µg/mL
same,"IC50 (µg/ml), pseudovirus neutralization",[14],> 50 µg/mL
same,"IC50 (µg/ml), pseudovirus neutralization",[15],> 50 µg/mL
same,"IC50 (µg/ml), pseudovirus neutralization",[16],> 50 µg/mL
same,"IC50 (µg/ml), pseudovirus neutralization",HIV-1 CMU02 Env (HIV-1),> 50 µg/mL
same,neutralization IC50,HIV-1 CMU02 Env (HIV-1),> 50 µg/mL
same,"IC50 (µg/ml), pseudovirus neutralization",[17],> 50 µg/mL
same,IC50,[18],> 50 µg/mL
same,IC50,[19],> 50 µg/mL
same,"IC50 (µg/ml), pseudovirus neutralization",[20],> 50 µg/mL
same,IC50 (pseudovirus neutralization),[21],> 50 µg/mL
same,IC50,[22],43 µg/mL
same,IC50,[23],> 50 µg/mL
same,IC50,[24],15 µg/mL
same,"IC50 (µg/ml), pseudovirus neutralization",[25],> 50 µg/mL
same,IC50 (pseudovirus neutralization),[26],> 50 µg/mL
same,IC50,[27],19 µg/mL
same,IC50,[28],6 µg/mL
same,IC50 (pseudovirus neutralization),[29],> 50 µg/mL
same,IC50 (pseudovirus neutralization),[30],> 50 µg/mL
same,"IC50 (µg/ml), pseudovirus neutralization",[31],> 50 µg/mL
same,IC50 (pseudovirus neutralization),[32],> 50 µg/mL
same,neutralization IC50,[33],> 50 µg/mL
same,neutralization IC50,[34],9.5 µg/mL
same,IC50,[35],> 50 µg/mL
same,IC50,[36],< 0.0025 µg/mL
same,"IC50 (µg/ml), pseudovirus neutralization",[37],> 50 µg/mL
same,"IC50 (µg/ml), pseudovirus neutralization",[38],> 50 µg/mL
same,"IC50 (µg/ml), pseudovirus neutralization",[39],> 50 µg/mL
same,neutralization IC50,HIV-1 NL43 Env (HIV-1),0.373 µg/mL
same,IC50,[40],> 50 µg/mL
same,neutralization IC50,[41],> 50 µg/mL
same,IC50,[42],> 50 µg/mL
same,neutralization IC50,[43],> 50 µg/mL
same,"IC50 (µg/ml), pseudovirus neutralization",[44],> 50 µg/mL
same,neutralization IC50,[45],28.6 µg/mL
same,IC50,[46],> 50 µg/mL
same,IC50,[47],> 50 µg/mL
